Experimental data as given in patent US5436138A, “Method for protein N-myristoylation” (Washington University, priority 1993, dated 1995).

What was measured:
[1] = compared with myristic acid; cited from earlier work
p60^v-src = settings: membrane versus cytosolic fractions; cited from earlier work
[2] = substrate: C[C@H](NC(=O)[C@H](C)NC(=O)[C@H](C)NC(=O)[C@H](CC(N)=O)NC(=O)CN)C(=O)N[C@@H](C)C(=O)N[C@@H](CCCNC(=N)N)C(=O)N[C@@H](CCCNC(=N)N)C(N)=O; test: coupled in vitro assay for NMT activity, Total E. coli NMT; assay type: biochemical, S. cerevisiae; settings: other: peptide substrate varied, 15 μM myristate
Description: (§1) In vitro assay system for NMT activity. To assess the peptide and acyl-CoA substrate specificities of E. coli-derived S. cerevisiae NMT, crude lysates or partially purified enzyme preparations were added to a coupled in vitro assay system [Towler and Glaser, Proc. Natl. Acad. Sci. USA 83, 2812-2816 (1986)]. The first step of this assay involves enzymatic conversion of radiolabeled fatty acids to their CoA thioesters by Pseudomonas acyl-CoA ligase. This ligase is largely nonspecific for fatty acid substrates [Shimizu et al., Anal. Biochem. 107, 193-198 (1980)]. Octapeptide substrates and NMT were then added to produce acylpeptides. Acylpeptides were purified from the reaction mixture by trichloroacetic acid/methanol precipitation and C18 reverse phase HPLC using a linear gradient of acetonitrile in water [Towler and Glaser, Proc. Natl. Acad. Sci. USA 83, 2812-2816 (1986)].
(§2) The peptide Km and Vmax values shown in the above Table I are averages obtained from 4- or 5-point Lineweaver-Burke plots. These plots were produced using data generated in at least three independent in vitro NMT assays. Varying concentrations of peptides were assayed with 15 μM myristate to determine peptide Km and Vmax values. […] Yeast NMT was from a 570 fold purified preparation [Towler et al., Proc. Natl. Acad. Sci. USA 84, 2708-2712 (1987)]. […] ND=not determined.

[3] = substrate: C[C@H](NC(=O)[C@H](C)NC(=O)[C@H](CC(N)=O)NC(=O)CN)C(=O)N[C@@H](CO)C(=O)N[C@@H](C)C(=O)N[C@@H](CCCNC(=N)N)C(=O)N[C@@H](CCCNC(=N)N)C(N)=O; test: as above; assay type: biochemical, S. cerevisiae; settings: other: peptide substrate varied, 15 μM myristate
Description: as §1, §2

[4] = substrate: CCCCCCCCCCCCCCCC(=O)SCCNC(=O)CCNC(=O)[C@H](O)C(C)(C)COP(=O)(O)OP(=O)(O)OC[C@H]1O[C@@H](n2cnc3c(N)ncnc32)[C@H](O)[C@@H]1OP(=O)(O)O; test: coupled in vitro assay for NMT activity, 45 kDa E. coli NMT; assay type: biochemical, S. cerevisiae; settings: other: fatty acyl-CoA substrate varied, 60 μM GNAAAARR
Description: as §1
(§3) To obtain a homogenous preparation of the enzyme, E. coli-produced NMT was further purified by Mono S fast protein liquid chromatography (FPLC).
as §2, with “(1987)]. Synthetic peptide substrates are represented by their conventional one letter amino acid code.” for “(1987)].”

[5] = substrate: CCCOCCCCCCCCCC(=O)SCCNC(=O)CCNC(=O)[C@H](O)C(C)(C)COP(=O)(O)OP(=O)(O)OC[C@H]1O[C@@H](n2cnc3c(N)ncnc32)[C@H](O)[C@@H]1OP(=O)(O)O; test: as above; assay type: biochemical, S. cerevisiae; settings: other: fatty acyl-CoA substrate varied, 60 μM GNAAAARR
Description: as §1, §3
as §2, with “(1987)]. Synthetic peptide substrates are represented by their conventional one letter amino acid code.” for “(1987)].”

[6] = substrate: C[C@H](NC(=O)[C@H](C)NC(=O)[C@H](CC(N)=O)NC(=O)CN)C(=O)N[C@@H](CO)C(=O)N[C@@H](C)C(=O)N[C@@H](CCCNC(=N)N)C(=O)N[C@@H](CCCNC(=N)N)C(N)=O; test: as above; assay type: biochemical, S. cerevisiae; settings: other: peptide substrate varied, 15 μM myristate
Description: as §1, §3
as §2, with “(1987)]. Synthetic peptide substrates are represented by their conventional one letter amino acid code.” for “(1987)].”

[7] = substrate: CCCCCCCCCCCCCC(=O)SCCNC(=O)CCNC(=O)[C@H](O)C(C)(C)COP(=O)(O)OP(=O)(O)OC[C@H]1O[C@@H](n2cnc3c(N)ncnc32)[C@H](O)[C@@H]1OP(=O)(O)O; test: cells, lysate or membranes named; settings: other: fatty acyl-CoA substrate varied, 60 μM GNAAAARR

CCCOCCCCCCCCCC(=O)O [10-(Propoxy)decanoic acid]
hydrophobicity [1]: reduced hydrophobicity (comparable to decanoic acid)
effect on p60v-src distribution when incorporated in vivo (p60^v-src): significant redistribution of the protein from membrane to cytosolic fractions

B1: E. coli-derived S. cerevisiae NMT (Total E. coli NMT) (Saccharomyces cerevisiae S288C; S2A) (protein)
chain: MAEEDKAKKLENLLKLLQLNNDDTSKFTQEQKKAMKDHKFWRTQPVKDFDEKVVEEGPIDKPKTPEDISDKPLPLLSSFEWCSIDVDNKKQLEDVFVLLNENYVEDRDAGFRFNYTKEFFNWALKSPGWKKDWHIGVRVKETQKLVAFISAIPVTLGVRGKQVPSVEINFLCVHKQLRSKRLTPVLIKEITRRVNKCDIWHALYTAGIVLPAPVSTCRYTHRPLNWKKLYEVDFTGLPDGHTEEDMIAENALPAKTKTAGLRKLKKEDIDQVFELFKRYQSRFELIQIFTKEEFEHNFIGEESLPLDKQVIFSYVVEQPDGKITDFFSFYSLPFTILNNTKYKDLGIGYLYYYATDADFQFKDRFDPKATKALKTRLCELIYDACILAKNANMDVFNALTSQDNTLFLDDLKFGPGDGFLNFYLFNYRAKPITGGLNPDNSNDIKRRSNVGVVML
notes: intact 53 kDa (codon 2 Ser to Ala from cloning) plus 45 kDa truncated form
Km [2]: 65.8 µM
Km [3]: 0.103 µM

B2: 45 kDa E. coli NMT (NMT missing the NH2-terminal 39 residues) (Saccharomyces cerevisiae S288C) (protein)
chain: FWRTQPVKDFDEKVVEEGPIDKPKTPEDISDKPLPLLSSFEWCSIDVDNKKQLEDVFVLLNENYVEDRDAGFRFNYTKEFFNWALKSPGWKKDWHIGVRVKETQKLVAFISAIPVTLGVRGKQVPSVEINFLCVHKQLRSKRLTPVLIKEITRRVNKCDIWHALYTAGIVLPAPVSTCRYTHRPLNWKKLYEVDFTGLPDGHTEEDMIAENALPAKTKTAGLRKLKKEDIDQVFELFKRYQSRFELIQIFTKEEFEHNFIGEESLPLDKQVIFSYVVEQPDGKITDFFSFYSLPFTILNNTKYKDLGIGYLYYYATDADFQFKDRFDPKATKALKTRLCELIYDACILAKNANMDVFNALTSQDNTLFLDDLKFGPGDGFLNFYLFNYRAKPITGGLNPDNSNDIKRRSNVGVVML
notes: S2A lies in the removed part
Km [4]: 0.96 µM
Km [5]: 1.2 µM
Km [6]: 0.38 µM
Km [7]: 0.36 µM
